Among the data in publication PMC8692893 are stoichiometry N values, retold here.

Several values for one entry are separate records, joined by “and”; a condition that tells them apart may be missing. Equal values may be shown once.

Assay [1] addresses IgM in bamboo shark plasma (Chiloscyllium plagiosum (endogenous in plasma)). The experiment in a line: non-reducing SDS-PAGE and SDS-agarose gel electrophoresis with Western blot; 1 µl plasma heated at 65°C for 10 min in SDS-loading buffer without reducing agents; 5% SDS-PAGE; 1.5% agarose gel with 0.1% SDS in the running buffer for plasma proteins larger than 300 kDa; blots probed with anti-IgNAR pAb or anti-IgM [Z69]; multimers counted in Ig monomers by molecular weight. On the technique in general: Immunoblotting shows a protein as a band on a membrane.

The target in assay [2] is IgW in bamboo shark plasma (Chiloscyllium plagiosum (endogenous in plasma)). The experiment in a line: non-reducing gel electrophoresis with Western blot (data not shown); IgW multimers in plasma, data not shown; anti-IgW [V43].
Assay [3] concerns the target immunoglobulin new antigen receptor (IgNAR), secretory, in bamboo shark plasma (Chiloscyllium plagiosum (endogenous in plasma)). The experiment in a line: non-reducing SDS-PAGE and SDS-agarose gel electrophoresis with Western blot; 1 µl plasma heated at 65°C for 10 min in SDS-loading buffer without reducing agents; 5% SDS-PAGE; 1.5% agarose gel with 0.1% SDS in the running buffer for plasma proteins larger than 300 kDa; blots probed with anti-IgNAR pAb or anti-IgM [Z69]; multimers counted in Ig monomers by molecular weight.

The substance “IgM in bamboo shark plasma (natural protein)” displayed a stoichiometry N in assay [1] of 5.
For the substance “IgW in bamboo shark plasma (natural protein)”, the stoichiometry N in assay [2] was 5 and 2.
In the case of “immunoglobulin new antigen receptor (IgNAR), secretory, in bamboo shark plasma (natural protein)”, the stoichiometry N in assay [3] is 3 and 4 and 5.

By stoichiometry N is commonly meant a count of units in the complex or per binding partner.
